These results are taken from patent US20240368233A1 (University of Washington, published 2024).

B6: DFB-1 (designed binder)
chain: NTHFIVVHGSEDAAQLAEELVREISKKEGTEVRFEKKDGLLSIEVKNLSEERQREIQKALQLVQDVANAERVVRERPGSNLAKKALEIILRAAEELAKLDLKASLKAAVRAAEKVVREQPGSNLAKKALEIILRAAEELAKLPDPEALKEAVKAAEKVVREQPGSNLAKKALEIILRAAAALANLPDPESRKEADKAADKVRREQPGSELAVVAAIISAVARMGVKMELHPSGNEVKVVIKGLHIKQQRQLYRDVREAAKKAGVEVEIEVEGDTVTIVVRGGSHHWGSGSHHHHHH
notes: Bivalent connector

Data set [1] concerns the molecule itself. The data set is described as follows: SEC and native MS (self-association).
A further data set deals with T1, DFB0.
T1 construct: Bivalent connector
T1 chain: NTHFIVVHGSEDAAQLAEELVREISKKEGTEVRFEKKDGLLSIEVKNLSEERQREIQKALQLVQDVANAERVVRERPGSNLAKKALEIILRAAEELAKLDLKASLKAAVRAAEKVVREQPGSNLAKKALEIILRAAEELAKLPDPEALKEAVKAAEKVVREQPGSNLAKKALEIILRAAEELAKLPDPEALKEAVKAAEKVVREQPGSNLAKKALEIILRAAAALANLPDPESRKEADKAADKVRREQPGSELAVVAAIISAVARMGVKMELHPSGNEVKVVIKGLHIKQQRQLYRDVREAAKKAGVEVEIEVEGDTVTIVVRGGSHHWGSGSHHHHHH
In words: SEC of mixed components; linear tetramer listed in Table 6, neighbours in the chain. The protocol:
(§1) Complexes and individual components were diluted in 20 mM Tris pH 8.0, 100 mM NaCl. After o/n equilibration of the mixtures at room temperature or 4 degrees C., 500 ul of sample was injected onto a Superdex™ 200 10/300 increase GL (dimers, linear assemblies) or Superose™ 6 increase 10/300 GL (symmetric assemblies) (all columns from GE healthcare) using the absorbance at 230 nm or 473 nm (for GFP tagged components) as read-out. Dimers were mixed at monomer concentrations of 5 μM or higher. Trimer and ABCD tetramer mixtures contained 5 μM of the bivalent connector, and 7.5 μM of each terminal cap (lower absolute concentrations with the same ratios were used for some trimers). ABCA tetramer mixtures contained 5 μM per bivalent connector and 15 μM terminal cap. The hexamer mixture contained 3 μM of components C and D, 3.6 μM of B and E, and 4.4 μM of A and F. The branched assembly shown in FIG. 4A contained 2.8 μM of the trivalent connector and 4 μM of each cap. For the exchange experiment shown in FIG. 5A, the ABC trimer was preincubated at concentrations of 6 μM B and 9 μM each of A and C. C′ was then added to reach a final concentration of 2 μM B, 3 μM each of A and C, and 6 μM C′.

The data set “DFB-1” concerns the target B6. The data set is described as above. The protocol:
as §1

Data set [2] concerns the molecule itself. The data set is described as follows: BLI conditions (self-association).
Data set [3] concerns the molecule itself. In words: SEC titration (self-association).
The target of a further data set is T2, 101B62.
T2 construct: also called LHD101B62
T2 chain: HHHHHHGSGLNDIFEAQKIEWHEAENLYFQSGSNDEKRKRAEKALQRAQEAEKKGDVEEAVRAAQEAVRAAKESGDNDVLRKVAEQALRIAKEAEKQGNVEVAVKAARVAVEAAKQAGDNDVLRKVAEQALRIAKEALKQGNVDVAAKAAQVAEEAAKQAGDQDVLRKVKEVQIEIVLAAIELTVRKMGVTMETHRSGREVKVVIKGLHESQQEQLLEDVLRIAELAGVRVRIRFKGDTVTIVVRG
The data set is described as follows: SEC of mixed components; linear tetramer listed in Table 6, neighbours in the chain. How it is done:
as §1

B1: RingA (designed binder)
chain: GSSIFLLSNVSEDAAQLAEELVREISKKEGTEVRFEKDDGFLTIEVKNLSEERLREIAKALQLIVDVANAERVVRERPGSNLAKKALEIILRAAEELAKLDLKASLKAAVRAALKVVAEQPGSNLAKKALEIIQRAAEELAKLPDPEAQKEAQLAAELVRAAELAKSPDPEDLKEAVRLAEEVVRERPGSNLAKAALAIILRAAEELAKLPDPEALKEAVKAAEKVVREQPGSNLAKKALEIILRAAAALANLPDPESRKEADKAADKVRREQPGSELAVVAAIISAVARMGVKMELHPSGNEVKVVIKGLHIKQQRQLYRDVREAAKKAGVEVEIEVEGDTVTIVVRGGGSWGLEHHHHHH
notes: Component of the two-component C4 ring (four copies of each in the ring); also called 29B_53_101A
Regarding B1, the binding result in data set [1] was “no binding”.

B2: DFA-1 (designed binder)
chain: TTNFHLINGSEEARQLIEKAVRAISKKEGTEVHFEKSDGTLEIRVKNLHEKREREIKKVIELILEVAAAERIVRERPGSNLAKKALEIILRAAEELAKADVDAALEAAVRAAEKVVREQPGSNLAKKALEIILRAAEELAKLPDPEALKEAVKAAEKVVREQPGSNLAKKALEIILRAAAALANLPDPESRKEADKAADKVRREQPGSELAVVAAIISAVARMGVKMELHPSGNEVKVVIKGLHIKQQRQLYRDVREAAKKAGVEVEIEVEGDTVTIVVRGGSHHWGSGSHHHHHH
notes: Bivalent connector
Regarding B2, the binding result in the data set with DFB0 and with DFB-1 was “binds” throughout.

B3: LHD29 chainB (designed binder)
chain: SSIFLLSNVSEEARQRAEEYVRRISKKEGTEVRFEKDDGFLTIEVKNLSEERLREIAEYLWRVAV
notes: also called LHD29B; 29B
In the case of B3, the binding result in data set [2] is reported as “binds”.

B4: LHD101 chainB (designed binder)
chain: GRQEKVLKSIEETVRKMGVTMETHRSGNEVKVVIKGLHESQQEQLLEDVLRTAEKQGVRVRIRFKGDTVTIVVRE
notes: also called LHD101B
Take B4: the binding result in data set [3] was “no binding (tested: above 100 µM)”.

B5: RingB (designed binder)
chain: GTWQWVLINISEEARQLIEKAVRAISKKEGTEVHFEKDDGVLHIRVKNLHEKRAREIHKVAKLILEVAAAERIVRERPGSNLAKKALEIILRAAEELAKADVDAALEAAVRAAEKVVREQPGSNLAKKAMEIILRAAEELAKLPDPEAQKEAAKAIARRVAAKVEELKRSGTSEDEIAEEVAREISEVIRTLKESGSSYEVICECVARIVAEIVEALKRSGTSEDEIAEIVARVISEVIRTLKESGSSYEVICECVARIVAEIVEALKRSGTSEEEIAEIVARVIQEVIRTLKESGSSYEVIRECLRRILEEVIEALKRSGVDSSEIVLIIIKIAVAVMGVTMEEHRSGNEVKVVIKGLHESQQEELLELVLRAAELAGVRVRIRFKGDTVTIVVRGGGSLEHHHHHH
notes: Component of the two-component C4 ring (four copies of each in the ring); also called 29A_53_4_101B
Turning to B5, in data set [1], the binding result is on record as “no binding”.

Consider B6, for which the binding result with 101B62 is on record as “binds”.
